The values below come from patent US20140341881A1 (DERMADIS, published 2014).

Assay [1] deals with thrombin. In words: cell-based or functional assay.
Another assay addresses T1, human kallikrein 8 (hK8) (human, UniProt O60259 33-260).
T1 sequence (looked up): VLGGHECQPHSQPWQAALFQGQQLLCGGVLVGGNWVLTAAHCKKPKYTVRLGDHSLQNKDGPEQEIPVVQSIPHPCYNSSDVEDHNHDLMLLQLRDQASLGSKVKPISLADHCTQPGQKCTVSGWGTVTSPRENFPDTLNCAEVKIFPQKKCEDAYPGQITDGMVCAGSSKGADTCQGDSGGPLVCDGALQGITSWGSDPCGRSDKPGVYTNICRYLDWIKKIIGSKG
Briefly: cell-based or functional assay.

Assay [2] has as its target T2, prostate specific antigen (PSA, hK3) (human, UniProt P07288 25-261). Briefly: cell-based or functional assay.
Assay [3] addresses T3, human kallikrein 13 (hK13) (human, UniProt Q9UKR3 26-277, limits assumed).
T3 sequence (looked up): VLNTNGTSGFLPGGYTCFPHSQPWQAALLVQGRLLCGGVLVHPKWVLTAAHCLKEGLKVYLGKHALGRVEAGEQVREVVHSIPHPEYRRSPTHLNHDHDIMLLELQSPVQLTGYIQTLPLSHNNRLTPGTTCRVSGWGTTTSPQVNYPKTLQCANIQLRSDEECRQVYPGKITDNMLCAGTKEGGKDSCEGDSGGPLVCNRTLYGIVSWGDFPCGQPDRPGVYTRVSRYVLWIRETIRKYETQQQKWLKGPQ
In words: cell-based or functional assay.

Assay [4] concerns the target T4, human chymotrypsin (Chtr) (human, UniProt P17538 19-263). In words: cell-based or functional assay.
The target of another assay is T5, human kallikrein 5 (hK5) (human, UniProt Q9Y337 67-293, limits assumed).
T5 sequence (looked up): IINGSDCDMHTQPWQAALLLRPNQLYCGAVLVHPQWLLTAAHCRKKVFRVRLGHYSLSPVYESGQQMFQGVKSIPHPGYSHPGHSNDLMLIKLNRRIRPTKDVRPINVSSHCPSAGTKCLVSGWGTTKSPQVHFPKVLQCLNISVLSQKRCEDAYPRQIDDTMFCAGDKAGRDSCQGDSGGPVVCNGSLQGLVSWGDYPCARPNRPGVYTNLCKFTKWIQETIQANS
In words: cell-based or functional assay.

A further assay addresses human kallikrein 6 (hK6) (human, UniProt Q92876 22-244). In words: cell-based or functional assay.
Assay [5] deals with T6, human kallikrein 2 (hK2) (human, UniProt P20151 25-261). Briefly: cell-based or functional assay.
The target of assay [6] is thrombin. In words: cell-based or functional assay. This is another data set of the same source.
In assay [7] the target is T7, urokinase plasminogen activator (uPA) (UniProt P00749 21-431, limits assumed). Briefly: cell-based or functional assay.
For assay [8], the target named is T4, human chymotrypsin (Chtr). Briefly: cell-based or functional assay. The source holds these as a separate data set.
The target of assay [9] is T7, urokinase plasminogen activator (uPA). Briefly: cell-based or functional assay. The source holds these as a separate data set.
For assay [10], the target named is T2, prostate specific antigen (PSA, hK3). In words: cell-based or functional assay. The source holds these as a separate data set.
The next assay has as its target human kallikrein hK1 (human, UniProt P06870 25-262). In words: cell-based or functional assay.
Assay [11] concerns the target T4, human chymotrypsin (Chtr). Briefly: cell-based or functional assay. This is another data set of the same source.
In assay [12] the target is T6, human kallikrein 2 (hK2). In words: cell-based or functional assay. The source holds these as a separate data set.
The target of assay [13] is T4, human chymotrypsin (Chtr). Briefly: residual enzyme activity against [I]o/[E]o, fluorogenic substrate. The protocol:
The stoichiometry of inhibition (SI) values were determined for the inhibition of rACTWT and its variants with hK2 and different other enzymes. An initial test was made with a molar excess of rACT (100 fold) over hK2, PSA, hK1, chymotrypsin (Chtr), plasma kallikrein (PK), urokinase (uPA) and human neutrophile elastase (HNE) enzymes. The reaction was carried out for 30 min at 25° C. (90 min at 37° C. for PSA) in reaction buffer (50 mM Tris pH 7.5, 150 mM NaCl, 0,05% Triton X-100, 0.01% BSA) and residual enzyme activity was measured by adding fluorescent substrates (Z-Phe-Arg-AMC for hK1, hK2 and PK, Suc-Ala-Ala-Pro-Phe-AMC for Chtr, Z-Gly-Gly-Arg-AMC for uPA, MeOSuc-Ala-Ala-Pro-Val-AMC for HNE, and CFP-TFRSA-YFP (TFRSA SEQ ID NO:137) for PSA). Activity of enzyme in presence of inhibitors was compared to uninhibited reaction. For reactions where an inhibition was observed, SI was determined by incubating different concentrations of recombinant serpins. Using linear regression analysis of fractional activity (velocity of inhibited enzyme reaction/velocity of uninhibited enzyme reaction) versus the molar ratio of the inhibitor to enzyme ([Iₒ]/[Eₒ]), the stoichiometry of inhibition, corresponding to the abscissa intercept, was obtained.

The target of assay [14] is T8, human plasma kallikrein (PK) (human, UniProt P03952 20-638). In words: cell-based or functional assay.
T8 sequence (P03952 20-638 limits assumed): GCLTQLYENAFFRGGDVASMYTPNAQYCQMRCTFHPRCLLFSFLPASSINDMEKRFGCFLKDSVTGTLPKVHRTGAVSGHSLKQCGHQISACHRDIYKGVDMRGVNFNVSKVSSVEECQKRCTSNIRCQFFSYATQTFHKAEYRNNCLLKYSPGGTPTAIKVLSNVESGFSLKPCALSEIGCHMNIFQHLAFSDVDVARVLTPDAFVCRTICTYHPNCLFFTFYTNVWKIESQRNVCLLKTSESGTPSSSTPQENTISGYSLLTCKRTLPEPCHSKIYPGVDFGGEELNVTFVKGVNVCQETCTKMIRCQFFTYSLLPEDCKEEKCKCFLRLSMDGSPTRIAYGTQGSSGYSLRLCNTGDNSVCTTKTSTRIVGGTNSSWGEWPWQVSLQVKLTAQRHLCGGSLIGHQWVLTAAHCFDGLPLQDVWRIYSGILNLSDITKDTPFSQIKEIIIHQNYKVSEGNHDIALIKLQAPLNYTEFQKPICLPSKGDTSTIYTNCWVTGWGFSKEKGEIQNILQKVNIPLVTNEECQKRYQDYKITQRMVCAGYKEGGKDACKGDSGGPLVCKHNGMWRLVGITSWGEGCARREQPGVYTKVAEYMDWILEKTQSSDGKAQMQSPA
Assay [15] deals with T9, human neutrophil elastase (HNE) (human, UniProt P08246 30-247, limits assumed).
T9 sequence (looked up): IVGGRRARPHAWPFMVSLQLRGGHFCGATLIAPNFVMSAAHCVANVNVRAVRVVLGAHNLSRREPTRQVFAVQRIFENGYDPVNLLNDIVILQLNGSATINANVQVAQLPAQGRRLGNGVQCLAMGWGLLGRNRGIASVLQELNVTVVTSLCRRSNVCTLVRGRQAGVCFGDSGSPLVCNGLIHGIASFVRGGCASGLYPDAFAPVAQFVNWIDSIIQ
Briefly: cell-based or functional assay.

Assay [16] deals with T10, human kallikrein 14 (hK14) (human, UniProt Q9P0G3 25-251, limits assumed).
T10 sequence (looked up): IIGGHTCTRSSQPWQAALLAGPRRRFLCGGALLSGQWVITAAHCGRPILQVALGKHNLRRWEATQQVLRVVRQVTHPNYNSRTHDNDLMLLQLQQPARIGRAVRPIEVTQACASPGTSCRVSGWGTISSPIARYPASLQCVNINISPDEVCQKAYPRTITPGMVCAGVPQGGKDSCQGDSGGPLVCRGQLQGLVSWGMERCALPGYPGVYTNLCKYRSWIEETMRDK
Briefly: cell-based or functional assay.

Assay [17] concerns the target T8, human plasma kallikrein (PK). Briefly: cell-based or functional assay. This is another data set of the same source.
In assay [18] the target is T9, human neutrophil elastase (HNE). In words: cell-based or functional assay. The source holds these as a separate data set.
Assay [19] concerns the target T10, human kallikrein 14 (hK14). In words: cell-based or functional assay. The source holds these as a separate data set.
Assay [20] has the same target. Briefly: residual hK14 activity against [I0]/[E0]. The method in brief: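 hK14 preincubated 4 hours at 37° C with varying inhibitor concentrations in 50 mM Tris pH 7.5, 150 mM NaCl, 0.05% Triton X-100, 0.01% BSA; residual activity read with Boc-Val-Pro-Arg-AMC (ex 340/em 485 nm). SI taken as abscissa intercept of vi/v₀ versus [I₀]/[E₀] linear regression.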
Assay [21] shares this target. Briefly: residual hK14 activity after 4 h at 37 C against [I0]/[E0]. The protocol: SI values of rAAT, rACT, and their variants were determined with hK14 incubating the protease with varying concentrations of inhibitor. After an incubation of 4 hours at 37° C. in reaction buffer (50 mM Tris, pH 7.5, 150 mM NaCl, 0.05% Triton X-100, 0.01% BSA), the residual activity was detected by the addition of fluorescent substrate (Boc-Val-Pro-Arg-AMC). Fluorescence was measured with excitation at 340 nm (±15) and emission at 485 nm (±10) in black 96 well plates using a microplate fluorescence reader FLₓ800 (Bio-Tek Instruments, Inc.). The SI value corresponds to the abscissa intercept of the linear regression analysis of fractional velocity (velocity of inhibited enzyme reaction (vi)/velocity of uninhibited enzyme reaction (v₀)) vs. the molar ratio of the inhibitor to enzyme ([I₀]/[E₀]).

T4 sequence (P17538 19-263): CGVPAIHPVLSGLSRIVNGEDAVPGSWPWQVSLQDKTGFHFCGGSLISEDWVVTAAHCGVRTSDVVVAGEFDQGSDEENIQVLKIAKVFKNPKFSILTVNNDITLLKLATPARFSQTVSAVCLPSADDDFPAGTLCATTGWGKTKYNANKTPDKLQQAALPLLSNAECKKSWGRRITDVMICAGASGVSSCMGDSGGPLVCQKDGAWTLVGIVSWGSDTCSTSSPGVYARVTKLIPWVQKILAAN

B1: rACTWT (recombinant wild type alpha-1-antichymotrypsin) (other, human)
chain: HHHHHHHPNSPLDEENLTQENQDRGTHVDLGLASANVDFAFSLYKQLVLKAPDKNVIFSPLSISTALAFLSLGAHNTTLTEILKGLKFNLTETSEAEIHQSFQHLLRTLNQSSDELQLSMGNAMFVKEQLSLLDRFTEDAKRLYGSEAFATDFQDSAAAKKLINDYVKNGTRGKITDLIKDLDSQTMMVLVNYIFFKAKWEMPFDPQDTHQSRFYLSKKKWVMVPMMSLHHLTIPYFRDEELSCTVVELKYTGNASALFILPDQDKMEEVEAMLLPETLKRWRDSLEFREIGELYLPKFSISRDYNLNDILLQLGIEEAFTSKADLSGITGARNLAVSQVVHKAVLDVFEEGTEASAATAVKITLLSALVETRTIVRFNRPFLMIIVPTDTQNIFFMSKVTNPKQA
notes: also called wild type rACT; wild type ACT
Consider B1, for which the Percentage inhibition with thrombin [1] turned out to be 18%; with human kallikrein 8 (hK8), 0%; in assay [2], 100%; in [3], 0%; in [4] it was 100%; in the assay with human kallikrein 5 (hK5) it was 7%. Further, the figures for the Percentage inhibition with human kallikrein 6 (hK6) and with human kallikrein 2 (hK2) [5] were 24% and 0%, respectively. Also, the “% Inhibition” value was determined as 18% with thrombin [6], 0% in assay [7] and 100% in assay [8]. Besides, the INHIBITION % is 0% in [9]; 80% in assay [10]; 0% with human kallikrein hK1; 100% in assay [11]; 0% in the assay with human kallikrein 2 (hK2) [12]. For the same molecule, the “SI (stoichiometry of inhibition)” value in [13] is 2.

B2: AATG9 (other, human)
chain: HHHHHHEDPQGDAAQKTDTSHHDQDHPTFNKITPNLAEFAFSLYRQLAHQSNSTNIFFSPVSIATAFAMLSLGTKADTHDEILEGLNFNLTEIPEAQIHEGFQELLRTLNQPDSQLQLTTGNGLFLSEGLKLVDKFLEDVKKLYHSEAFTVNFGDTEEAKKQINDYVEKGTQGKIVDLVKELDRDTVFALVNYIFFKGKWERPFEVKDTEEEDFHVDQVTTVKVPMMKRLGMFNIQHCKKLSSWVLLMKYLGNATAIFFLPDEGKLQHLENELTHDIITKFLENEDRRSASLHLPKLSITGTYDLKSVLGQLGITKVFSNGADLSGVTEEAPLKLSKAVHKAVLTIDEKGTEAAGAMFLETVDYAIPPEVKFNKPFVFLMIEQNTKSPLFMGKVVNPTQK
notes: mature; also called rAATG9
For B2, the Percentage inhibition (in the assay with thrombin [1]; with human kallikrein 8 (hK8); in assay [14]; in [15]; in assay [2]; in assay [3]) was 0% in each case. In addition, the Percentage inhibition stood at 100% in assay [4]; 30% with human kallikrein 5 (hK5); 100% in [16]; 0% with human kallikrein 6 (hK6); 0% in the assay with human kallikrein 2 (hK2) [5]. The “% Inhibition” value with thrombin [6] was 0%; in assay [7] it was 0%; in assay [17], 0%; in assay [18], 0%; in assay [8], 100%; in assay [19], 100%. Further, the “SI (stoichiometry of inhibition)” value in assay [20] and in [21] was 1.2 in each case.
